From the supplement of paper PMC10567573

B1: ADD1 (parent)
chain: LRHSFQKQQREKTRWLNSGRGDEA

Variants of: B1
Assay: protein stability index of a GFP-peptide fusion (GPS, HEK-293T) (PSI 1-6); higher = more stable
Conditions: c terminus: a fixed tail appended
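Also: lentivirally expressed fusions sorted by FACS into six bins by GFP to DsRed ratio, PSI derived from sequencing read proportions per bin multiplied by bin number.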

Variant | protein stability index
D22M | 3.47
D22A | 3.57
D22K | 3.4
D22I | 2.68
D22C | 3.18
D22E | 3.89
D22V | 3.25
D22T | 3.29
D22G | 3.62
D22L | 2.71
D22F | 3.64
D22H | 3.94
D22W | 1.99
D22R | 3.73
D22P | 2.83
D22Q | 3.74
D22Y | 2.78
D22S | 3.9
L1Q | 3.78
L1V | 3.71
L1P | 4.04
L1A | 4.57
L1G | 4.21
L1T | 4.32

Variant | protein stability index
L1H | 3.92
L1E | 4.34
L1K | 3.62
L1M | 3.65
L1F | 3.8
L1D | 3.7
L1R | 4.42
L1C | 3.23
L1N | 4.11
L1W | 2.92
E11C | 1.93
E11K | 3.17
E11T | 3.11
E11P | 3.91
E11M | 2.26
E11A | 3.41
E11F | 2.24
E11G | 3.27
R10K | 3.9
R10N | 3.95
R10E | 4.67
R10T | 3.83
R10V | 3.48
R10A | 4.17

Variant | protein stability index
R10H | 4.13
R10L | 3.82
R10I | 3.65
R10Q | 4.44
R10S | 4.58
R10D | 4.23
R10W | 2.66
R10C | 3.58
R10P | 3.53
R10Y | 3.64
R10G | 3.72
S4F | 2.92
S4M | 2.84
S4G | 3.45
S4N | 4.03
S4K | 3
S4P | 3.3
S4A | 3.59
S4E | 3.86
S4H | 2.74
S4Y | 2.45
S4L | 2.26
S4R | 3.21
S4C | 3.01

Variant | protein stability index
S4W | 3.04
R14N | 3.58
R14G | 4.03
R14E | 4.59
R14K | 3.78
R14P | 3.86
R14A | 3.58
R14M | 3.42
R14W | 3.25
R14S | 4.03
R14V | 3.95
L16E | 4.72
L16N | 3.94
L16I | 3.67
L16H | 3.42
L16R | 4.03
L16P | 4.57
L16F | 3.28
L16A | 3.66
L16K | 4.22
L16M | 3.88
L16T | 3.57
L16W | 2.35
S18I | 3.85

Variant | protein stability index
S18D | 3.11
S18F | 2.87
S18H | 3.19
S18C | 3.26
S18P | 3.93
S18E | 4.28
S18R | 2.63
S18N | 3.96
S18K | 3.67
S18L | 3.39
S18M | 3.36
S18Y | 3.79
R2P | 4.33
R2F | 2.99
R2Q | 3.94
R2S | 3.6
R2Y | 3.26
R2A | 4.17
R2E | 4.42
R2I | 3.06
R2C | 3.58
R2L | 3
R2H | 4.03
R2D | 5.03

Variant | protein stability index
R2K | 3.71
R2N | 4.3
R2T | 4.05
R2V | 3.11
R2W | 2.92
T13L | 3.54
T13N | 4.27
T13G | 4.07
T13C | 3.6
T13V | 3.26
T13D | 4.12
T13I | 4.01
T13R | 3.83
T13A | 3.53
T13Y | 2.93
T13E | 4.27
T13P | 3.52
T13M | 3.25
G19E | 4.29
G19H | 3.56
G19S | 3.81
G19P | 3.65
G19C | 2.22
G19V | 2.82

Variant | protein stability index
G19F | 2.83
G19R | 3.65
G19M | 3.57
G19L | 3.35
G19W | 2.63
G19Q | 3.7
G19Y | 3
W15A | 4.07
W15V | 3.97
W15T | 4.65
W15C | 3.73
W15P | 4.66
W15K | 4.08
W15Q | 4.84
W15M | 4.25
W15S | 4.68
W15N | 4.54
W15R | 4.62
W15F | 4.05
W15G | 4.72
K7E | 4.33
K7R | 3.01
K7M | 3.22
K7D | 3.87

Variant | protein stability index
K7S | 4.24
K7Y | 3.51
K7F | 3.63
K7W | 3.08
K7Q | 4.27
K7P | 3.86
K7I | 3.1
K7G | 4.57
K7T | 3.67
K7V | 3.38
Q9C | 1.73
Q9P | 3.44
Q9W | 2.94
Q9F | 2.71
Q9A | 4.12
Q9E | 4.29
Q9H | 3.7
Q9G | 4.15
Q9S | 3.64
Q9K | 3.92
Q9N | 3.72
Q9V | 3.35
Q9L | 3.23
G21Y | 3.01

Variant | protein stability index
G21F | 3.39
G21L | 3.64
G21W | 3.03
G21R | 3.47
G21K | 3.84
G21S | 3.63
G21P | 3.71
G21N | 3.43
G21H | 3.2
G21Q | 3.49
G21C | 3.21
G21V | 3.59
G21A | 4
R20D | 4.88
R20Q | 3.95
R20F | 3.21
R20Y | 3.47
R20E | 4.28
R20M | 3.78
R20P | 4.17
R20T | 3.75
R20H | 4.05
R20N | 3.62
R20A | 3.84

Variant | protein stability index
R20V | 3.88
R20L | 2.24
R20W | 3.26
R20S | 4.12
R20C | 3.91
R20K | 4.03
R20I | 3.54
K12P | 3.56
K12S | 3.54
K12F | 3.05
K12E | 4.24
K12H | 3.58
K12V | 3.27
K12R | 3.88
K12L | 3.51
K12I | 3.46
K12Y | 3.48
K12M | 3.42
K12W | 2.72
K12T | 3.57
Q6Y | 2.85
Q6W | 2.53
Q6L | 3.54
Q6R | 3.7

Variant | protein stability index
Q6A | 3.78
Q6I | 3.25
Q6S | 3.18
Q6E | 4.14
Q6T | 3.7
Q6N | 3.87
Q6H | 3.69
Q6C | 2.27
Q6K | 3.99
Q6G | 3.11
H3V | 3.32
H3Q | 3.67
H3K | 3.75
H3R | 3.61
H3S | 4.03
H3D | 4.53
H3L | 3.54
H3I | 3.16
H3C | 2.31
H3A | 3.67
H3M | 3.29
H3N | 3.65
H3E | 3.98
H3P | 3.77

Variant | protein stability index
F5V | 4.17
F5E | 4.71
F5Q | 4.19
F5I | 3.74
F5P | 4.4
F5G | 4.16
F5S | 4.17
F5K | 3.7
F5H | 4.24
F5W | 3.44
F5T | 4.11
F5N | 4.37
Q8W | 2.08
Q8A | 4
Q8E | 3.83
Q8D | 3.87
Q8C | 2.62
Q8F | 2.73
Q8Y | 2.71
Q8K | 3.35
Q8M | 3.32
Q8S | 3.63
Q8H | 3.41
Q8V | 3.48

Variant | protein stability index
Q8G | 3.52
Q8R | 3.48
Q8N | 3.15
Q8I | 3.64
A24V | 3.56
A24I | 3.15
A24N | 4.03
A24M | 3.56
A24F | 2.69
A24G | 3.96
A24H | 3.31
A24C | 3.51
A24Q | 4.03
A24L | 3.08
A24E | 4.52
A24R | 3.93
A24K | 4.12
A24D | 3.95
A24Y | 3.18
A24W | 1.65
A24P | 3.58
N17E | 3.95
N17P | 4.03
N17D | 3.94

Variant | protein stability index
N17I | 2.7
N17T | 3.4
N17R | 2.49
N17Y | 2.91
N17A | 3.81
N17W | 2.59
N17S | 3.88
N17M | 3.05
N17L | 3.05
N17F | 3.14
N17Q | 3.83
E23M | 3.25
E23C | 3.54
E23D | 3.6
E23S | 3.83
E23A | 3.98
E23G | 3.64
E23N | 3.73
E23I | 3.24
E23H | 3.23
E23L | 2.38
E23Y | 2.66
